Consider 1 molecule from article doi:10.1101/2022.01.19.476979 (bioRxiv, 2022).

Experiment [1] concerns the target T1, FHH-tagged Siah1, recombinant purified (UniProt Q8IUQ4 1-282, RED-tris-NTA 2nd generation dye (Monolith His-Tag labeling kit)).
T1 sequence (looked up): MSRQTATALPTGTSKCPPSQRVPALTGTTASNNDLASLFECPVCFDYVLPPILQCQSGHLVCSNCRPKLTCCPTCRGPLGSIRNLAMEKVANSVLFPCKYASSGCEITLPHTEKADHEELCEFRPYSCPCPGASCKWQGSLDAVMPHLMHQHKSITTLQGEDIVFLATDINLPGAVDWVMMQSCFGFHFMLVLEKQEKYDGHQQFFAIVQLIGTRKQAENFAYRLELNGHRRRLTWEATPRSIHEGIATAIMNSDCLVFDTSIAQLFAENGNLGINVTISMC
Description: MST.

For experiment [2], the target named is FHH-tagged MAB21L4, recombinant purified (human, UniProt Q08AI8 1-447, RED-tris-NTA 2nd generation dye (Monolith His-Tag labeling kit)). In words: MST.
FHH-tagged MAB21L4, recombinant purified, sequence (Q08AI8 whole entry): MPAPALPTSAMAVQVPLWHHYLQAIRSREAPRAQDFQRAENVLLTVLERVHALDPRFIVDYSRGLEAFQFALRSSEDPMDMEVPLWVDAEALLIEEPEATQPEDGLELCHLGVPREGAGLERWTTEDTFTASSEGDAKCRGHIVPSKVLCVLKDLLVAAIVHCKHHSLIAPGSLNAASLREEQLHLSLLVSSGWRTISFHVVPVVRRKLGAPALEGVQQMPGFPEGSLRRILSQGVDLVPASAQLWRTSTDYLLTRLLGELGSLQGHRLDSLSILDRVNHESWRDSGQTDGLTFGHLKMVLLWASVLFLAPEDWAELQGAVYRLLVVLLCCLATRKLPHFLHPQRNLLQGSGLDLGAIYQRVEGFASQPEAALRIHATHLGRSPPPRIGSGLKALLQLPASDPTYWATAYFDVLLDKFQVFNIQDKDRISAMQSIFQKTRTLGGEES

B1: n-terminus FLAG-tagged CacyBP, recombinant purified (natural protein, UniProt Q9HB71 1-228, looked up)
chain: MASEELQKDLEEVKVLLEKATRKRVRDALTAEKSKIETEIKNKMQQKSQKKAELLDNEKPAAVVAPITTGYTVKISNYGWDQSDKFVKIYITLTGVHQVPTENVQVHFTERSFDLLVKNLNGKSYSMIVNNLLKPISVEGSSKKVKTDTVLILCRKKVENTRWDYLTQVEKECKEKEKPSYDTETDPSEGLMNVLKKIYEDGDDDMKRTINKAWVESREKQAKGDTEF
By Kd is commonly meant the free concentration of one partner at which half of the binding sites on the other are occupied at equilibrium, for simple one-to-one binding. Consider B1, for which the Kd in experiment [1] was determined as 9.8 µM; in experiment [2] it was 2.1 µM.
